Target: T1, SCRIB PDZ3 K1040A (human, UniProt Q14160 1002-1094, K1040A)
T1 sequence: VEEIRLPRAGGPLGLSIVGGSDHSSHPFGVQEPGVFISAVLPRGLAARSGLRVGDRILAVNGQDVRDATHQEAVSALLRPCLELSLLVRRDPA
Assay: ITC
Conditions: both partners purified

LRLESSII [TBEV NS5_CTN peptide (C-terminal PBM of NS5)]
Kd: 12.5 µM | dH: -6.7 kcal/mol | stoichiometry N: 0.9
